This assay addresses His-Tagged human CD38 (recombinant) (human) (UniProt P28907). Put plainly: SPR; Biacore T200, CM5 chip, 25 °C; His-tagged CD38 captured by immobilised anti-His antibody (human about 860 RU, mouse 1360 RU); AJ206 as analyte, 300 × 10^-9 M down to 1.2 × 10^-9 M; PBS-P + 1% DMSO, pH 7.4; 50 µL/min; contact 120 s, dissociation 360 s. A general note: SPR reads the build-up and loss of mass on a sensor chip optically.

Starred links: 1 amine or outer side, 2 acyl side, 3 side chain; linkers in the order of their positions; H or OH if unused. Positions of bridges follow the written chain, without caps; N, C: chain ends. Primed or numbered codes have the meaning given here. *: point of attachment. NOTA = O=C(O)CN1CCN(CC(=O)O)CCN(CC(=O)*)CC1; TBMB = c1c(C[*:1])cc(C[*:3])cc1C[*:2]; PEG3′ = not defined here

As a reminder, the Kd is the free concentration of one partner at which half of the binding sites on the other are occupied at equilibrium, for simple one-to-one binding. As to {NOTA-PEG3′}-ACVPCADFPIWYC-NH2 (linker 2-5-13 via TBMB) [AJ206], the Kd came to 19.1 nM.

Values taken from article PMC11040352, “CD38‐Specific Gallium‐68 Labeled Peptide Radiotracer Enables Pharmacodynamic Monitoring in Multiple Myeloma with PET” (Advanced Science, 2024).
